In patent publication US20250339531A1, “DUX4 POLYPEPTIDES AND NUCLEIC ACIDS FOR TREATING INFLAMMATORY AND AUTOIMMUNE CONDITIONS” (Fred Hutchinson Cancer Center, priority 2021, published 2025):

Key:
Assay in all cases: anti-FLAG co-IP LC-MS, exp 3, +IFNg +Dox
[1] = molecular target: 60S ribosomal protein L7a (Homo sapiens) (UniProt P62424)
[2] = molecular target: ATP synthase subunit alpha, mitochondrial (Homo sapiens) (UniProt P25705)
[3] = molecular target: Y-box-binding protein 3 (Homo sapiens) (UniProt P16989)
[4] = molecular target: Ribonuclease inhibitor (Homo sapiens) (UniProt P13489)
Sequence of Ribonuclease inhibitor (Homo sapiens) (P13489 2-461 limits assumed): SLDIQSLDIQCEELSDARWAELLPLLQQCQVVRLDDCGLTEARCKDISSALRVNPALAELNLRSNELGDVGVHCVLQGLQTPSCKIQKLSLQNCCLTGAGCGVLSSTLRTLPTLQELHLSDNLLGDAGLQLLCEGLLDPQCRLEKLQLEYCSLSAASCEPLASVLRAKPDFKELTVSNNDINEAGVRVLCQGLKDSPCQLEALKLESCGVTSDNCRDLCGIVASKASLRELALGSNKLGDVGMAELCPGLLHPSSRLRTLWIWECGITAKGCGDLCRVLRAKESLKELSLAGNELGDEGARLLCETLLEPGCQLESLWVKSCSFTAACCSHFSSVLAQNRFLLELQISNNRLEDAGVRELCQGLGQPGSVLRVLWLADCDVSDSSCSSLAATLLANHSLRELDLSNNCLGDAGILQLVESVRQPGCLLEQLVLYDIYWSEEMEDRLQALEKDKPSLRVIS

[5] = molecular target: Signal transducer and activator of transcription 3 (Homo sapiens) (UniProt P40763)
[6] = molecular target: 60S acidic ribosomal protein P0 (Homo sapiens) (UniProt P05388)
[7] = molecular target: Prelamin-A/C (Homo sapiens) (UniProt P02545)
Sequence of Prelamin-A/C (Homo sapiens) (P02545 1-646 limits assumed): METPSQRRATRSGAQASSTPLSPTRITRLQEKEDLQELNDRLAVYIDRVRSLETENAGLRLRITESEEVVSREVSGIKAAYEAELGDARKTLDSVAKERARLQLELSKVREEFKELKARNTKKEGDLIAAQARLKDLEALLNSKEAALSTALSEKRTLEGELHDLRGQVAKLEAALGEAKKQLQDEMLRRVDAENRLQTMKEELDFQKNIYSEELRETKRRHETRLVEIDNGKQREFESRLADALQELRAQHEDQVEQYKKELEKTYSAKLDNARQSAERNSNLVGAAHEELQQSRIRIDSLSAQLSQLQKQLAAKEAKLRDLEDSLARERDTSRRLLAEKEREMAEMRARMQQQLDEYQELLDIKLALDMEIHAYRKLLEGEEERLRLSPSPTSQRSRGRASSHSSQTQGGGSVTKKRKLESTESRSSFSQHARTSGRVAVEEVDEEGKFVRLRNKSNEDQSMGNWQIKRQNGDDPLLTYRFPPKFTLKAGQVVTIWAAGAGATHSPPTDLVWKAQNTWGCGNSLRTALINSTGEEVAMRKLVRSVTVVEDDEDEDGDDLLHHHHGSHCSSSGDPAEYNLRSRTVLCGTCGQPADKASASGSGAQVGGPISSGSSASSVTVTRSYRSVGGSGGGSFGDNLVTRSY

[8] = molecular target: Serine/threonine-protein phosphatase 2A 65 kDa regulatory subunit A alpha isoform (Homo sapiens) (UniProt P30153)
Filamin-A (Homo sapiens) = Filamin-A (Homo sapiens) (UniProt P21333)
[9] = molecular target: 60S ribosomal protein L18 (Fragment) (Homo sapiens) (UniProt Q07020)
[10] = molecular target: 60S ribosomal protein L8 (Homo sapiens) (UniProt P62917)
[11] = molecular target: 60S ribosomal protein L11 (Homo sapiens) (UniProt P62913)
[12] = molecular target: Alpha-actinin-4 (Homo sapiens) (UniProt O43707)
Sequence of Alpha-actinin-4 (Homo sapiens) (O43707 whole entry): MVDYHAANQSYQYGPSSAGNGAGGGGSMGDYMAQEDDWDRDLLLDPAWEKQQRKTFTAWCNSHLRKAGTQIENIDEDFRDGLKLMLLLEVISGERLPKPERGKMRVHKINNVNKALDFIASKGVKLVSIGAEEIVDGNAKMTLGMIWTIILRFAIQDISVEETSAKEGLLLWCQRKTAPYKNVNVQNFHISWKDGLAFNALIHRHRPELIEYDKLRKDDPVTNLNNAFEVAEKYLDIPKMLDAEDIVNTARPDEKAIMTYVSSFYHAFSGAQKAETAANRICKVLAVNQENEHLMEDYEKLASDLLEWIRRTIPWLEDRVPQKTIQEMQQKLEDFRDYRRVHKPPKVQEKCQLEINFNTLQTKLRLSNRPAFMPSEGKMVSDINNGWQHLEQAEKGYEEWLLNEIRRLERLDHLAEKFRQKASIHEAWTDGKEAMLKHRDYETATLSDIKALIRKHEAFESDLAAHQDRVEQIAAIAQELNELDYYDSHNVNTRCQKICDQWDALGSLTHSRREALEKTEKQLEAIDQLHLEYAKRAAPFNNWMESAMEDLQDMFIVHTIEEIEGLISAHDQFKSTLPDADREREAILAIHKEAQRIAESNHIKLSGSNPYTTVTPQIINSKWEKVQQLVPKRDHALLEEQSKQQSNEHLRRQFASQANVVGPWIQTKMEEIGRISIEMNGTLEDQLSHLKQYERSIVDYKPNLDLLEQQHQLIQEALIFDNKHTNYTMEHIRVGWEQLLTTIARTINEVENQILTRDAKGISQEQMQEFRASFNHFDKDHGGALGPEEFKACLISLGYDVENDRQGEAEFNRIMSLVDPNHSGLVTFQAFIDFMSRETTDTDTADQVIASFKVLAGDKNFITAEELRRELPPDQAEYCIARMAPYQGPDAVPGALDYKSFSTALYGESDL

[13] = molecular target: X-ray repair cross-complementing protein 5 (Homo sapiens) (UniProt P13010)
Sequence of X-ray repair cross-complementing protein 5 (Homo sapiens) (P13010 2-732 limits assumed): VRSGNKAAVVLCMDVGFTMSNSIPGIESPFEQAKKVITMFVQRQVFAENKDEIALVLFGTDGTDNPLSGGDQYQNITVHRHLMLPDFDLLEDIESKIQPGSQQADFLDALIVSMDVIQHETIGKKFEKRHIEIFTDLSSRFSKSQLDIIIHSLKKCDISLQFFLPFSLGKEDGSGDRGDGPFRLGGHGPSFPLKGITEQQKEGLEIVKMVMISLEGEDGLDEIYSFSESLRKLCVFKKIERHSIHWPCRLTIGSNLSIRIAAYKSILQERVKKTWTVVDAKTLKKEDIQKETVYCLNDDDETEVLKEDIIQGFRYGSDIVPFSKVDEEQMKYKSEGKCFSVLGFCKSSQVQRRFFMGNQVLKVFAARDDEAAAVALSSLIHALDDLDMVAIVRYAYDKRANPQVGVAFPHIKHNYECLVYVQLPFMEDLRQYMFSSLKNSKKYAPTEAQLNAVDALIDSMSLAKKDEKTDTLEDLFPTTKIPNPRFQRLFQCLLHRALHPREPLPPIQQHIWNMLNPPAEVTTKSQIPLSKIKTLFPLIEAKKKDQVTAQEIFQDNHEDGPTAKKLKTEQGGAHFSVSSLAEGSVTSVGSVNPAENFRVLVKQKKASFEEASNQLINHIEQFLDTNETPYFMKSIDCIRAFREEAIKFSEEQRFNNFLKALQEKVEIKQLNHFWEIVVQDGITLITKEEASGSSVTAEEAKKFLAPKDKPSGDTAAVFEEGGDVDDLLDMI

Vimentin (Homo sapiens) = Vimentin (Homo sapiens) (UniProt P08670)
[14] = molecular target: 60S ribosomal protein L3 (Homo sapiens) (UniProt P39023)
[15] = molecular target: Importin-5 (Fragment) (Homo sapiens) (UniProt O00410)
[16] = molecular target: Clathrin heavy chain (Homo sapiens) (UniProt Q00610)
[17] = molecular target: Prolyl 4-hydroxylase subunit alpha-1 (Homo sapiens) (UniProt P13674)
[18] = molecular target: Probable ubiquitin carboxyl-terminal hydrolase FAF-X (Homo sapiens) (UniProt Q93008)
[19] = molecular target: Neutral cholesterol ester hydrolase 1 (Homo sapiens) (UniProt Q6PIU2)
[20] = molecular target: 40S ribosomal protein S4, X isoform (Homo sapiens) (UniProt P62701)
[21] = molecular target: Polypyrimidine tract-binding protein 1 (Homo sapiens) (UniProt P26599)
[22] = molecular target: 26S proteasome non-ATPase regulatory subunit 2 (Homo sapiens) (UniProt Q13200)
Sequence of 26S proteasome non-ATPase regulatory subunit 2 (Homo sapiens) (Q13200 whole entry): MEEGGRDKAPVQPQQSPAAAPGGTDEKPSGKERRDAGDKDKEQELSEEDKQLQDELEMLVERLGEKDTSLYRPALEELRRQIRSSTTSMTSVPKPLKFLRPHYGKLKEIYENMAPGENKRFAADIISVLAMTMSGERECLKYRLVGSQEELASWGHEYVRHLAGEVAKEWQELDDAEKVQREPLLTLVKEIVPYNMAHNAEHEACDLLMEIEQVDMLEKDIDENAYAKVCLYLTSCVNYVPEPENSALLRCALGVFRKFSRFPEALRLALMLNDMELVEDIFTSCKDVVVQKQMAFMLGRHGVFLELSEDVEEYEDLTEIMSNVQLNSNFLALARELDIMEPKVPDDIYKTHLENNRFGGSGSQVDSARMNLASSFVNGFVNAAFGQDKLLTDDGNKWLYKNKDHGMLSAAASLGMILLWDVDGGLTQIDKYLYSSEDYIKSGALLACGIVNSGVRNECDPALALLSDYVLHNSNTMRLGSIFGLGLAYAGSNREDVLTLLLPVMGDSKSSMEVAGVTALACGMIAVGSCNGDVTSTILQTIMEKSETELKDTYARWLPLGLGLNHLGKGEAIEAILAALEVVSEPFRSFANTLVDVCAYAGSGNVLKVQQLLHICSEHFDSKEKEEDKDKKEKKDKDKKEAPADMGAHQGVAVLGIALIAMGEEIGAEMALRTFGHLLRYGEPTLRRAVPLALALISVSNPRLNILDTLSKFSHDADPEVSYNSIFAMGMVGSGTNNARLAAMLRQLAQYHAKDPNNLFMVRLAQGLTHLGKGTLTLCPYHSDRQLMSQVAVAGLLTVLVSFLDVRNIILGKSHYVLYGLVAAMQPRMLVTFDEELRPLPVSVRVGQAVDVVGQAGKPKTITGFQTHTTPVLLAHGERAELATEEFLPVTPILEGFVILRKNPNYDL

[23] = molecular target: 60S ribosomal protein L18a (Homo sapiens) (UniProt Q02543)
[24] = molecular target: Splicing factor 3B subunit 3 (Homo sapiens) (UniProt Q15393)
[25] = molecular target: Fibronectin (Homo sapiens) (UniProt P02751)
[26] = molecular target: Probable ATP-dependent RNA helicase DDX6 (Homo sapiens) (UniProt P26196)
[27] = molecular target: Tubulin beta-4B chain (Homo sapiens) (UniProt P68371)
[28] = molecular target: Tubulin beta-2A chain (Homo sapiens) (UniProt Q13885)
[29] = molecular target: Nucleosome assembly protein 1-like 1 (Homo sapiens) (UniProt P55209)
[30] = molecular target: Tubulin alpha-4A chain (Homo sapiens) (UniProt P68366)
Sequence of Tubulin alpha-4A chain (Homo sapiens) (P68366 whole entry): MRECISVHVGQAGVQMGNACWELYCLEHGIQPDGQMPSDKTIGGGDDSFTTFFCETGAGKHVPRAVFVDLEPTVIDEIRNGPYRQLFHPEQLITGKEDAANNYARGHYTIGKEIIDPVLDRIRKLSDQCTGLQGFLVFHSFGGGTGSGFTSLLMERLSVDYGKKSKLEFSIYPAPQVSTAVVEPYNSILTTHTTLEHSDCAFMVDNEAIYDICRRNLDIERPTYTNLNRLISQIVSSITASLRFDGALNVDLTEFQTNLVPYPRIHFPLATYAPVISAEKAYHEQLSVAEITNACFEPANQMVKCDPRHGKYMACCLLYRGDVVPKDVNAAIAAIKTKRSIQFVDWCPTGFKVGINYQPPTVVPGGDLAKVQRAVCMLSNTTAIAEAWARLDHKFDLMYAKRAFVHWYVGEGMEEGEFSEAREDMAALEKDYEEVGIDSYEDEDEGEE

[31] = molecular target: Ras GTPase-activating protein-binding protein 1 (Homo sapiens) (UniProt Q13283)
Sequence of Ras GTPase-activating protein-binding protein 1 (Homo sapiens) (Q13283 2-466 limits assumed): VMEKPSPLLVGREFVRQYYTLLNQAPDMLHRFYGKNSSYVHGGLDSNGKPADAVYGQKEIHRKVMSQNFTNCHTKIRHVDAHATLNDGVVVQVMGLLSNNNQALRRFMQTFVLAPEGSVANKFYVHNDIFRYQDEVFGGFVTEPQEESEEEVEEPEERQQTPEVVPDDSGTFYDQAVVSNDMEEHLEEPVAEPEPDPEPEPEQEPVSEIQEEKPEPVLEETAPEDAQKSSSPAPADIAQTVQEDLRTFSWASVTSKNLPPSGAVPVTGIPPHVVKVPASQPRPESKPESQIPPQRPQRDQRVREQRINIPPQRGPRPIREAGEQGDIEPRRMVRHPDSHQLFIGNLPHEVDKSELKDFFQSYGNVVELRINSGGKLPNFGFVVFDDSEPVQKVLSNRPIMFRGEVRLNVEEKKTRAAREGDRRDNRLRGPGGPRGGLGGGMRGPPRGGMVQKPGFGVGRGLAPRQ

[32] = molecular target: Plasminogen activator inhibitor 1 (Homo sapiens) (UniProt P05121)
Sequence of Plasminogen activator inhibitor 1 (Homo sapiens) (P05121 24-402 limits assumed): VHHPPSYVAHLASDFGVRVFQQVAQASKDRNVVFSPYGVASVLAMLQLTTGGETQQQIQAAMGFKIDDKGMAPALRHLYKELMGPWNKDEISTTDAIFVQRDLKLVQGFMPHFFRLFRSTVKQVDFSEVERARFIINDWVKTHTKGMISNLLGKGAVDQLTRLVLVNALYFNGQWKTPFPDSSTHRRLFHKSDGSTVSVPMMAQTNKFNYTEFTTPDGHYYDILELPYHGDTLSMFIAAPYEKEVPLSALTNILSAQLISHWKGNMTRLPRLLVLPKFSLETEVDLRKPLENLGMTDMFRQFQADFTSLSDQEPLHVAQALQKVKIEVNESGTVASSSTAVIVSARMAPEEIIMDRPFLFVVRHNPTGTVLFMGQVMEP

[33] = molecular target: Histone acetyltransferase type B catalytic subunit (Homo sapiens) (UniProt O14929)
[34] = molecular target: D-3-phosphoglycerate dehydrogenase (Homo sapiens) (UniProt O43175)

Measured: PSMs

i3XFLAG-NLS-CTDaa154-424
39 PSMs: [30]
5 PSMs: [1] | [6] | [9] | [13] | [17] | [18] | [29]
48 PSMs: [25]
2 PSMs: [2] | [10] | [11] | [20] | [21] | [23] | [31]
70 PSMs: [27]
14 PSMs: [8]
12 PSMs: Filamin-A (Homo sapiens)
45 PSMs: Vimentin (Homo sapiens)
11 PSMs: [12] | [14] | [16] | [19]
61 PSMs: [28]
3 PSMs: all other assays above
